Here are results for five molecules from US20220378912A1 (Novartis, published 2022).

B1: SEG101 (crizanlizumab), humanised monoclonal antibody against human P-selectin (antibody, human IgG2, kappa, V domains shown)
VH: QVQLVQSGAEVKKPGASVKVSCKVSGYTFTSYDINWVRQAPGKGLEWMGWIYPGDGSIKYNEKFKGRVTMTVDKSTDTAYMELSSLRSEDTAVYYCARRGEYGNYEGAMDYWGQGTLVTVSS
VL: DIQMTQSPSSLSASVGDRVTITCKASQSVDYDGHSYMNWYQQKPGKAPKLLIYAASNLESGVPSRFSGSGSGTDFTLTISSLQPEDFATYYCQQSDENPLTFGGGTKVEIKR
notes: also called SelG1; main peak
B2: homo-iso-crizanlizumab (antibody, human IgG2, kappa, V domains shown)
VH: B1 VH
VL: B1 VL
modifications: isoaspartic acid at position 32
notes: Aspartic acid at position 32 of both light chains replaced by isoaspartic acid; also called iso-crizanlizumab (both light chains)
B3: D-succinimide of crizanlizumab (antibody, human IgG2, kappa)
heavy: QVQLVQSGAEVKKPGASVKVSCKVSGYTFTSYDINWVRQAPGKGLEWMGWIYPGDGSIKYNEKFKGRVTMTVDKSTDTAYMELSSLRSEDTAVYYCARRGEYGNYEGAMDYWGQGTLVTVSSASTKGPSVFPLAPCSRSTSESTAALGCLVKDYFPEPVTVSWNSGALTSGVHTFPAVLQSSGLYSLSSVVTVTSSNFGTQTYTCNVDHKPSNTKVDKTVERKCCVECPPCPAPPVAGPSVFLFPPKPKDTLMISRTPEVTCVVVDVSHEDPEVQFNWYVDGMEVHNAKTKPREEQFNSTFRVVSVLTVVHQDWLNGKEYKCAVSNKGLPAPIEKTISKTKGQPREPQVYTLPPSREEMTKNQVSLTCLVKGFYPSDIAVEWESNGQPENNYKTTPPMLDSDGSFFLYSKLTVDKSRWQQGNVFSCSVMHEALHNHYTQKSLSLSPGK
light 1: DIQMTQSPSSLSASVGDRVTITCKASQSVDYDGHSYMNWYQQKPGKAPKLLIYAASNLESGVPSRFSGSGSGTDFTLTISSLQPEDFATYYCQQSDENPLTFGGGTKVEIKRTVAAPSVFIFPPSDEQLKSGTASVVCLLNNFYPREAKVQWKVDNALQSGNSQESVTEQDSKDSTYSLSSTLTLSKADYEKHKVYACEVTHQGLSSPVTKSFNRGEC
light 2: B3 light 1
modifications: succinimide at position 32
notes: One light chain with succinimide, the other with aspartic acid at position 32; also called D-Succi-crizanlizumab
B4: hetero-iso-crizanlizumab (antibody, human IgG2, kappa)
heavy: B3 heavy
light 1: B3 light 1
light 2: B3 light 1
modifications: isoaspartic acid at position 32
notes: Aspartic acid at position 32 of only one light chain replaced by isoaspartic acid; also called iso-crizanlizumab (one light chain)
B5: isoD-succinimide of crizanlizumab (antibody, human IgG2, kappa)
heavy: B3 heavy
light 1: B3 light 1
light 2: B3 light 1
modifications: isoaspartic acid at position 32; succinimide at position 32
notes: One light chain with succinimide, the other with isoaspartic acid at position 32; also called isoD-Succi-crizanlizumab

For the first assay, the target named is T1, recombinant human P-selectin (human, UniProt P16109 42-771, limits assumed).
T1 construct: Coated on ELISA plates
T1 sequence (looked up): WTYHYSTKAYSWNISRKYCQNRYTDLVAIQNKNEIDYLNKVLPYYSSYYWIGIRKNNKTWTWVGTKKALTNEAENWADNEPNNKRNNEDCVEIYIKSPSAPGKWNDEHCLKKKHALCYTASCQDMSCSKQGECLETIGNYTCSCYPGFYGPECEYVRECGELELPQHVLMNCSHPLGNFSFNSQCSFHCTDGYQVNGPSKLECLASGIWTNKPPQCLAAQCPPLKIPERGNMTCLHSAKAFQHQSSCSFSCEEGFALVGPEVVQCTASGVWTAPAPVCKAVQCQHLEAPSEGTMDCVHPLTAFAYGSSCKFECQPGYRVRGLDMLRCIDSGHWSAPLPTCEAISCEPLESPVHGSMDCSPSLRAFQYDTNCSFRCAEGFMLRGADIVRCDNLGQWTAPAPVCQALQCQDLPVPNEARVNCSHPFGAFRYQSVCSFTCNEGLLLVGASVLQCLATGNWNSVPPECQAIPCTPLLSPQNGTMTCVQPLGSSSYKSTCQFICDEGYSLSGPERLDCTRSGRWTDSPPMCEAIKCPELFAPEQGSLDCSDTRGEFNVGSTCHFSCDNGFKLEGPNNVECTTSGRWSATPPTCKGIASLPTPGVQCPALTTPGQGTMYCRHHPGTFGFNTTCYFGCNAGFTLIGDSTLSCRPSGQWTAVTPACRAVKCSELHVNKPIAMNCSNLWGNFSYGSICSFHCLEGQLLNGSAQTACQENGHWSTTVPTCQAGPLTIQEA
Put plainly: P-selectin binding assay of Example 2 (ELISA), relative %; CZE peak comprising the variant. On the procedure: In the ELISA, potency and identity of SEG101 samples are measured based on their ability to bind recombinant human P-selectin. ELISA plates are coated with recombinant human P-selectin, and graded amounts of SEG101 are added. Bound SEG101 is quantified using an anti-human IgG antibody coupled to horseradish peroxidase followed by the addition of a colorimetric substrate. Results of the colorimetric reaction are measured by light absorption. The potency of a SEG101 test sample is quantified by comparing its ability to bind P-selectin to that of a SEG101 reference standard. The samples and the standard are normalized on the basis of protein content. Relative potency is calculated using a parallel line assay according to the European Pharmacopoeia. The final result is expressed as relative potency (in percent) of a sample compared to the reference standard.
As to B1, the “P-selectin binding affinity [%]” value was found to be 90%.

With B2, the “P-selectin binding affinity [%]” value worked out at 119%. On to B3, for which the “P-selectin binding affinity [%]” value amounted to 78%. Same read-out and setting: as for B4, the figure is 105%; as for B5, 63%.

Another assay deals with T2, P-selectin fused to immunoglobulin (Psel-Ig) (UniProt P16109 42-771, limits assumed).
T2 construct: also called spiked P-selectin; not shown: immunoglobulin part of the fusion
T2 sequence (looked up): T1 sequence (looked up)
As to the kind of experiment: SPR competition: dilution series of crizanlizumab and any variants thereof inhibiting Psel-Ig binding to immobilised biotinylated GSP-6 (standard inhibition curve). How it is done: An SPR-based method was used to measure ex vivo % P-selectin inhibition of crizanlizumab in human serum samples from human donors treated with crizanlizumab. This PD assay measured the ability of crizanlizumab and it variants in serum to block P-selectin (antigen; ligand) binding to PSGL-1 (ligand receptor). Blockage by crizanlizumab and any variants thereof was measured as % inhibition of spiked P-selectin fused to immunoglobulin (Psel-Ig) binding to glycosulfopeptide 6 (GSP-6), a peptide analogue mimicking the PSGL-1 binding domain. For example, streptavidin was immobilized on 2 channels (FC-2 and FC-3) of the used biosensor chip using standard amine coupling followed by injection of biotinylated GSP-6 to immobilize the peptide for analysis. A reference channel (FC-1) was prepared by biotin-blocking streptavidin. The pre-treatment samples established the maximum binding for each subject and this was used as the basis for calculating % inhibition using the post-dose serum samples from the subject at various time points. Quantified crizanlizumab and any variants thereof in a series of dilutions were used to generate standard inhibitition curve, showing an IC₅₀ value of 5.2 μg/mL for crizanlizumab under all conditions.
Molecule B1 had an IC50 of 5.2 mg/L.
